The values below come from patent US11248246B2, “Beta-glucosidase for producing glucose and laminarioligosaccharide from sea weed” (Korea University Research and Business Foundation, priority 2018, dated 2022).

A short description of data set [1]: Thermal stability of Bgl1B. The format is physicochemical. The source says: FIG. 4 illustrates the stability with respect to temperature of the enzyme.
The nature of data set [2]: Enzymatic reaction rate (Lineweaver-Burk), laminaribiose. The format is biochemical. The protocol:
To confirm the enzymatic reaction rate of the Bgl1B protein for various substrates, the Bgl1B protein was allowed to react with each substrate at various concentrations of 0.1-0.4% (w/v) at pH 6 and 40° C. Vmax, Km, and kcat, which are parameters related to an enzymatic reaction rate, were determined from the Lineweaver-Burk plot.

Data set [3] in a line: Transglycosylase activity against laminaribiose (HPLC, TLC, FIG. 8). To be noted: 0.002 U of Bgl1B, 0.3% (w/v) of laminarin (so in the source). It is filed as biochemical. The protocol:
(§1) Characteristics of the enzymatic reaction of the Bgl1B protein using, as a substrate, laminarin, which is a polysaccharide, were analyzed using high performance liquid chromatography (HPLC) and thin layer chromatography (TLC). HPLC analysis was performed using Agilent 1100 HPLC equipped with a gel permeation and ligand exchange column (KS-802; Shodex) and a refractive index detector, and analysis conditions were a flow rate of 0.5 mL/min, a column temperature of 80° C., and sterile water as a mobile phase. For TLC analysis, 1 μl of a reaction product was loaded onto silica gel 60 plates (Merck), and then developed using a mixed solvent of n-butanol:acetic acid:water (volume ratio of 3:2:2), and treated with 10% (v/v) of sulfuric acid for visualization.

Data set [4] in a line: Substrate specificity of Bgl1B on disaccharides (TLC). The format is biochemical. As to conditions: 0.2% (w/v) substrate, 20 mM sodium phosphate buffer (pH 6), 0.6 U of Bgl1B, 1 hour. How it is done:
To confirm the substrate specificity of the Bgl1B protein, each of 0.2% (w/v) of a plurality of disaccharides in a 20 mM sodium phosphate buffer (pH 6) was allowed to react with 0.6 U of Bgl1B for 1 hour.

Data set [5] can be described thus: Hydrolysis of laminarin to glucose (HPLC). As to conditions: 3 U of Bgl1B, 0.2% (w/v) of laminarin, 40° C., 24 hours. The format is biochemical. How it is done: as §1
The nature of data set [6]: Optimum pH of Bgl1B protein (relative activity at pH 4.0-9.0). It is filed as biochemical. The source says:
FIG. 2 illustrates the relative activity of Bgl1B at a pH ranging from 4.0 to 9.0. […] The activity was reduced to 30% or less at a pH of 4 and at a pH of 8 or higher.

The nature of data set [7]: Optimum temperature of Bgl1B (relative activity at 2° C. to 60° C.). It is filed as biochemical. How it is done:
FIG. 3 illustrates the relative activity of Bgl1B at a temperature ranging from 2° C. to 60° C. […] An enzymatic activity of approximately 83% was maintained at 20° C. […] In addition, the enzyme can be inactivated with only simple heat treatment.

Data set [8] in a line: Transglycosylase activity against laminarin (HPLC, TLC). The format is biochemical. As to conditions: 0.03 U of Bgl1B, 0.2% (w/v) of laminarin, after 24 hours. The protocol: as §1

B1: Bgl1B: β-glucosidase having the amino acid sequences of SEQ ID NO: 1, from Saccharophagus degradans 2-40^T, with exo-type glucanase and transglycosylase activities (protein)
chain: MNRLTLPPSSRLRSKEFTFGVATSSYQIEGGIDSRLPCNWDTFCEQPNTIIDNTNGAIACDHINRWQDDIELIANLGVDAYRFSIAWGRVINLDGSLNNEGVTFYKNILTKLREKNLKAYITLYHWDLPQHLEDAGGWLNRDTAYKFRDYVNLITQALDDDVFCYTTLNEPFCSAYLGYEIGVHAPGIKDLASGRKAAHHLLLAHGLAMQVLRKNCPNSLSGIVLNMSPCYAGSNAQADIDAAKRADDLLFQWYAQPLLTGCYPDAINSLPDNAKPPICEGDMALISQPLDYLGLNYYTRAVFFADGNGGFTEQVPEGVELTDMGWEVYPQGLTDLLIDLNQRYTLPPLLITENGAAMVDELVNGEVNDIARINYFQTHLQAVHNAIEQGVDVRGYFAWSLMDNFEWALGYSKRFGITYVDYQTQKRTLKASGHAFAEFVSSRS
modifications: Saccharophagus degradans 2-40T
B1: the “enzymatic activity maintained after heat” value in data set [1] (after reaction at 40° C. for 1 hour) came out at 80%. For the same molecule, the “enzymatic activity after heat” value in data set [1] (after reaction at 50° C. or higher for 1 hour) is reported as “almost no activity”. In addition, in data set [2] (Table 2 substrates compared), the “substrate specificity in a collective view of the parameters” value is reported as “highest substrate specificity for laminaribiose”. Further, the “lower Km compared to Novozyme 188” value in data set [2] (laminaribiose, compared to the commercialized enzyme Novozyme 188) stood at 2.5 fold. Moreover, the “product of transglycosylase activity (FIGS. 8A and 8B)” value in data set [3] is listed as “production of DP3 was confirmed”. For the same molecule, in data set [4], the hydrolysis of agarotriose entry is reported as “unable to hydrolyze agarotriose”, the “hydrolysis of disaccharides with an α-linkage” value is recorded as “unable to hydrolyze any disaccharide with an α-linkage” and the “hydrolysis of disaccharides with β-linkages” value is “able to hydrolyze all disaccharides with β-linkages”. Besides, in data set [5], the “production yield of glucose from laminarin” value amounted to 75% and the “products of laminarin degradation (HPLC)” value is listed as “only glucose is produced without the production of oligosaccharides”. In data set [6] (0.1% (w/v) cellobiose, 40° C., 15 minutes, pH 4.0-9.0), the “pH of highest activity” value is listed as 6. The “enzymatic activity at about pH 5 to about pH 7.5” value in data set [6] (about pH 5 to about pH 7.5) is listed as at least 80%. The “relative activity at a pH of 4” value in data set [6] (pH 4, 0.1% (w/v) cellobiose, 40° C., 15 minutes) is reported as at most 30%. Moreover, the “relative activity at a pH of 8 or higher” value in data set [6] (pH 8 or higher, 0.1% (w/v) cellobiose, 40° C., 15 minutes) was at most 30%. For the same molecule, the “enzymatic activity at 50° C. or higher” value in data set [7] (50° C. or higher) was “sharply reduced”. In data set [7] (pH 6, 2-10° C.), the “enzymatic activity at 2-10° C.” value is recorded as at least 58%. Also, the “enzymatic activity at pH 6 and 10° C. to 40° C.” value in data set [7] (pH 6, 10° C. to 40° C.) is listed as at least 80%. Further, the “enzymatic activity maintained at 20° C.” value in data set [7] (pH 6, 20° C.) is on record as “approximately 83%”. Further, the “temperature of highest enzymatic activity” value in data set [7] (pH 6, range 2° C. to 60° C.) is 40 °C. Besides, the “products at very low enzyme concentration (transglycosylase activity)” value in data set [8] is “oligosaccharides with low degrees of polymerization such as DP2, DP3, and DP4 were produced”.
